Measured values: patent publication US20040248081, “LANA viral protein binding sites” (THE REGENTS OF THE UNIVERSITY OF MICHIGAN, published 2004)

How the values were obtained:
LANA 1-950 = target: T1, LANA 1-950 (Kaposi's sarcoma-associated herpesvirus); assay: EMSA; details: label: radiolabel
T1 chain: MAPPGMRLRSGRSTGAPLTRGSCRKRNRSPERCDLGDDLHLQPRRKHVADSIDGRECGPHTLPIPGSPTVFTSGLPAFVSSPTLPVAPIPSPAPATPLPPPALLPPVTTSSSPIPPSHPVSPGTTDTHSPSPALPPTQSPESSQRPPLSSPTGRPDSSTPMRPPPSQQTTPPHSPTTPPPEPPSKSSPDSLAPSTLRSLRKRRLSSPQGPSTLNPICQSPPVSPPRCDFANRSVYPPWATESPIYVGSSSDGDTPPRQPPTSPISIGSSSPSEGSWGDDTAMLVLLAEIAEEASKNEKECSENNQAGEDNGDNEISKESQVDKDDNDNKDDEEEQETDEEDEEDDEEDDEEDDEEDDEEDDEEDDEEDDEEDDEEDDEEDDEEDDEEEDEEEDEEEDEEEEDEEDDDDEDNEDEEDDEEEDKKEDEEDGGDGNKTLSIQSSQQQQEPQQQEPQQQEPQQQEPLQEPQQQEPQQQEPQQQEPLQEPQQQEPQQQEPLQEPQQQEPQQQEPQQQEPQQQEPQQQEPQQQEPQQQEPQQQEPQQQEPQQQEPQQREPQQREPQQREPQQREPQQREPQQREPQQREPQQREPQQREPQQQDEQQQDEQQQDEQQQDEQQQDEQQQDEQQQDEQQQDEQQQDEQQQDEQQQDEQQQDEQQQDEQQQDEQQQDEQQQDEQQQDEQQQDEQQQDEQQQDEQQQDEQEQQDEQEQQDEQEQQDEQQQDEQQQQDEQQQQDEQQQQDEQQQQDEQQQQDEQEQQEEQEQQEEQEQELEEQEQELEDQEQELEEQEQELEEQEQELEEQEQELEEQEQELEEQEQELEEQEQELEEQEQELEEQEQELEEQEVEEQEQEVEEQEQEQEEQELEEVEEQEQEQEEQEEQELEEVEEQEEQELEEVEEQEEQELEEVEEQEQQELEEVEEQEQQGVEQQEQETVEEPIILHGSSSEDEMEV

LANA 9-11 (last 237 aa) = LANA 9-11 (last 237 aa) (Kaposi's sarcoma-associated herpesvirus, UniProt Q9QR71 SEQ:926-1162); assay: EMSA; lacks leucine zipper; anti-LANA supershift; details: tags: GST; label: radiolabel
LANA 9-11 (last 237 aa), sequence (Q9QR71 893-1129): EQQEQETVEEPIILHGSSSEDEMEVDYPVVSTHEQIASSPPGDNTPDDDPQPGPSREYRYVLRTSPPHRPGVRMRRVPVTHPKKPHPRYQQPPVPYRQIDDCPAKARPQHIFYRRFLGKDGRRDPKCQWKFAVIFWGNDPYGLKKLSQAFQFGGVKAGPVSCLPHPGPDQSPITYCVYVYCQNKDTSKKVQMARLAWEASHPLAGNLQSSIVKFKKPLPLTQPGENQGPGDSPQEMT

B1: TLBR4 (dsDNA)
DNA 1: TCCCGCCCGGGCATGGG
DNA 2: CCCATGCCCGGGCGGGA
- binding result (LANA 1-950): no binding
- binding result (LANA 9-11 (last 237 aa)): binds
